# Measurements from patent publication US20250250357A1 (NANJING ZAIMING PHARMACEUTICAL, published 2025).
# Residue numbers refer to the chain shown, from its start.
# B1: S009-F8-18.9 (antibody, human IgG1, kappa, V domains shown)
# VH: EFQLQQSGPELVKPGASVKISCKASGYSFTDYNMNWVKQSNGKSLEWIGIINPNYGTTSYNQKFKGRATLTVDQSSSTAYVQLNSLTSEDSAVYYCARGGYDNEAMDYWGQGTSVTVSS
# VL: QIVLTQSPAIMSASPGEKVTMTCSASSSVSYMHWYQQKSGTSPKRWIYDTSKLASGVPARFSGSGSGTSYSLTISSMEAEDAATYYCQQWSSNPPTFGAGTKLELKR
# notes: Human-murine chimeric antibody, human IgG1 heavy and kappa light constant regions
# B2: S009-F8-19.21 (antibody, human IgG1, kappa, V domains shown)
# VH: B1 VH with A24T, I50V, S59G, R67K, V81M, N103G, Q111H
# VL: B1 VL with S30N, N93Y, A99G, L105I
# notes: as for B1
# B3: S009-F8-33.12 (antibody, human IgG1, kappa, V domains shown)
# VH: EVQLQQSGAELVKPGASVKLSCTASAFNIKDYYMHWVKQRTEQGLEWIGRIDPEDGETKYAPKFQGKATITADTSSNTAYLQLSSLTSEDTAVYYCASGSGTGAMDYWGQGTSVTVSS
# VL: DIVMTQSQKFMSTSVGDRVSITCKASQNVRTAVGWYQQKPGQSPKALIYLASNRHTGVPDRFTGSGSGTDFTLTISNVQSEDLADYFCLQHWNSPYTFGGGTKLVIKR
# notes: as for B1
# B4: S009-F8-22.23 (antibody, human IgG1, kappa, V domains shown)
# VH: QVQLKQSGPGLVQPSQSLSITCTVSGFSLFSYGVHWVRQSPGKGLEWLGVIWSGGSTDYNAAFISRLSISKDNSKSQVFFKMNSLQADDTAMYYCARNGGSMITTLYYAMDYWGQGTSVTVSS
# VL: DVVMTQTPLSLPVSLGDQASISCRSSQSLVHSYGNTYLHWYLQKPGQSPKLLIYKVSNRFSGVPDRFSGSGSGTDFTLKISRVEAEDLGVYFCSQSTHIPFTFGGGTKLEIKR
# notes: as for B1
# B5: S009-F8-32.3 (antibody, human IgG1, kappa, V domains shown)
# VH: QVQLKESGPGLVAPSQSLSITCTVSGFSLSSYAISWVRQPPGKGLEWLGVIWTGGGTNYNSALKSRLSISKDNSKSQVFLKMNSLQTDDTARFYCARNNYGRLDYAMDYWGQGTSVTVSS
# VL: B4 VL with S32G, Y33N, A85T, I99V, G105S
# notes: as for B1
# B6: S009-F8-36.12 (antibody, human IgG1, kappa, V domains shown)
# VH: EVQLQQSGPELVKPGASVKISCKASGYTFTDYYMNWVKQSHGKSLEWIGDINPNNGGTSYNQKFKGKATLTVDKSSSTAYMELRSLTSEDSAVYYCASWGYGSSSRGYFDYWGQGTTLTVSS
# VL: QIVLSQSPAILSASPGEKVTMTCRASSSVSYMHWYQQKPGSSPKPWIYATSNLASGVPARFSGSGSGTSYSLTISRVEAEDAATYYCQQWSSNPWTFGGGTKLEIKR
# notes: as for B1
# B7: S009-F8-24.14 (antibody, human IgG1, kappa, V domains shown)
# VH: EFQLQQSGPELVKPGASVKISCKASGYSFTDYNMNWVKLSNGKSLEWIGVIIPNYGTSSYNQKFKGKATLTVDQSSSTAYMQLNSLTSEDSAVYYCARWDNYYGSSLDYWGQGTTLTVSS
# VL: DIVMTQSQKFMSTTVGDRVSITCKASQNVGTAVAWYQQKPGQSPKLLIYSASNRYTGVPDRFTGSGSGTDFILTISNMQSEDLADYFCQQYSSYPLTFGAGTKLELKR
# notes: as for B1
# B8: S009-F8-31.22 (antibody, human IgG1, kappa, V domains shown)
# VH: EVQLVESGGDLVKPGGSLKLSCAASGFTFSTYGMSWVRQTPDKRLEWVATISSGGSYTYYPDSLKGRFTISRDNAKNTLYLQMSSLKSEDTAMYYCARHEGYYYGKDYWGQGTTLTVSS
# VL: DIVLTQSPATLSVTPGDSVSLSCRASHSISNNLHWYQQKSHESPRLLIKYASQSISGIPSKFSGSGSGTDFTLSINSVETEDFGMYFCQQTNSWPLTFGAGTKLELKR
# notes: as for B1
# B9: S009-F8-29.1 (antibody, human IgG1, kappa, V domains shown)
# VH: QVQLQQSGAELARPGASVKMSCKASGYTFISYTMHWVKQRPGQGLEWIGYINPSSGYTKYNQKFKDKATLTADKSSSTAYMQLNSLTSEDSAVYYCARYYSNPDYYAMDYWGQGTSVTVSS
# VL: QIVLTQSPAIMSASPGEKVTITCSASSSVSYMHWFQQKPGTSPKLWIYSTSNLASGVPARFSGSGSGTSYSLTISRMEAEDAATYYCQQRSSYPLTFGGGTKLELKR
# notes: as for B1
# B10: S009-F8-27.1 (antibody, human IgG1, kappa, V domains shown)
# VH: EVQLVESGGGLVKPGGSLKLSCAASGFTFSSYAMSWVRQTPEKRLEWVATISDGGNYTYYPDNVKGRFTISRDNAKNNLYLQMSHLKSEDTAMYYCAGDRGYPYAMDSWGQGTSVTVSS
# VL: NIMMTQSPSSLAVSAGEKVTMSCKSSQSVLYSSNQKNYLAWYQQKPGQSPKLLIYWASTRESGVPDRFTGSGSGTDFTLTISNVHAEDLAVYYCHQYLSSLTFGAGTKLELKR
# notes: as for B1
# B11: S009-F8-28.23 (antibody, human IgG1, kappa, V domains shown)
# VH: B10 VH with G10D, N56S, K65E, P103S, M106L, S108Y
# VL: B10 VL with N83S, H85Q
# notes: as for B1
# Target: T1, human MSLN-FL-his protein (human, UniProt Q13421 296-580)
# T1 construct: Made in HEK293E cells, purified on nickel column; it is put last here; also called human MSLN full-length protein; hMSLN-FL-his; not shown: His tag
# Test: ELISA on coated antigen, antibody 10 nM
# Method: (§1) The plate was sealed with a plastic film and incubated at 4° C. overnight. The next day, the plate was washed twice with PBST, and a blocking buffer [PBS+2% (w/w) BSA] was added for blocking at room temperature for 2 h. The blocking buffer was discarded, and a chimeric antibody or negative control antibody serially diluted from 100 nM was added at 50 μL/well. After incubation at 37° C. for 2 h, the plate was washed 3 times with PBST. […] After incubation at 37° C. for 2 h, the plate was washed 5 times with PBST. A TMB substrate was added at 50 μL/well for incubation at room temperature for 5-10 min, and then a stop solution (1.0 N HCl) was added at 50 μL/well.
# T1 sequence (Q13421 other isoform, or with tags, fused parts or gaps): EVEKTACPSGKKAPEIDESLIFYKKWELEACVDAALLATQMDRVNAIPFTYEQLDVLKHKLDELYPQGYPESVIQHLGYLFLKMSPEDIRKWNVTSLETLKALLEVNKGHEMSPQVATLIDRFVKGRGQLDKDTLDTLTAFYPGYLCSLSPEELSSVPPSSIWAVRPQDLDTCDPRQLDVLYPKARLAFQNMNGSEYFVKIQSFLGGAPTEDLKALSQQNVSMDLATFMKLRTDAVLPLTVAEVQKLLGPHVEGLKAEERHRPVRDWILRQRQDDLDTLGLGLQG
row,OD450 [OD],Binder
1,2.39,B1
2,2.32,B2
3,2.92,B3
4,2.88,B4
5,2.85,B5
6,2.69,B6
7,2.98,B7
8,2.56,B8
9,3.2,B9
10,2.37,B10
11,3.13,B11

# Target: T1, human MSLN-FL-his protein
# Test: ELISA on coated antigen, antibody 0.1 nM
# Method: as §1
row,OD450 [OD],Binder
1,1.93,B1
2,1.61,B2
3,1.61,B3
4,1.71,B4
5,1.63,B5
6,0.73,B6
7,2.02,B7
8,2.19,B8
9,1.71,B9
10,1.34,B10
11,1.04,B11

# Target: T1, human MSLN-FL-his protein
# Test: ELISA on coated antigen, antibody 0.001 nM
# Method: as §1
row,OD450 [OD],Binder
1,0.15,B1
2,0.1,B2
3,0.11,B3
4,0.44,B4
5,0.11,B5
6,0.06,B6
7,0.18,B7
8,0.2,B8
9,0.13,B9
10,0.08,B10
11,0.08,B11

# Target: T1, human MSLN-FL-his protein
# Test: ELISA on coated antigen, no antibody (blank, column 'none')
# Method: as §1
row,OD450 [OD],Binder
1,0.05,B1
2,0.06,B2
3,0.06,B3
4,0.04,B4
5,0.04,B5
6,0.04,B6
7,0.06,B7
8,0.08,B8
9,0.18,B9
10,0.04,B10
11,0.05,B11

# Target: T1, human MSLN-FL-his protein
# Test: ELISA on coated antigen, antibody 0.01 nM
# Method: as §1
row,OD450 [OD],Binder
1,0.71,B1
2,0.4,B2
3,0.43,B3
4,0.92,B4
5,0.48,B5
6,0.18,B6
7,0.75,B7
8,0.85,B8
9,0.48,B9
10,0.31,B10
11,0.24,B11

# Target: T1, human MSLN-FL-his protein
# Test: ELISA on coated antigen, antibody 1 nM
# Method: as §1
row,OD450 [OD],Binder
1,2.29,B1
2,2.05,B2
3,2.57,B3
4,2.49,B4
5,2.64,B5
6,2.21,B6
7,2.77,B7
8,2.53,B8
9,2.9,B9
10,2.23,B10
11,2.63,B11

# Target: T1, human MSLN-FL-his protein
# Test: ELISA on coated antigen, antibody 100 nM
# Method: as §1
row,OD450 [OD],Binder
1,2.42,B1
2,2.37,B2
3,2.95,B3
4,2.9,B4
5,3.03,B5
6,2.71,B6
7,2.91,B7
8,2.66,B8
9,3.07,B9
10,2.5,B10
11,3,B11

# Target: T1, human MSLN-FL-his protein
# Test: ELISA on coated antigen, antibody 0.0001 nM
# Method: as §1
row,OD450 [OD],Binder
1,0.06,B1
2,0.06,B2
3,0.05,B3
4,0.29,B4
5,0.07,B5
6,0.05,B6
7,0.1,B7
8,0.08,B8
9,0.07,B9
10,0.05,B10
11,0.05,B11
